From patent publication US20250066499A1 (SUNSHINE GUOJIAN PHARMACEUTICAL SHANGHAI, published 2025)

Experiments:
Assay in all cases: ELISA; decline multiple of Top against CD73-ND
[1] = target: T1, CD73-ND-his (human, UniProt P21589 27-317)
T1 construct: Biotinylated and captured on streptavidin in the ELISA
T1 sequence: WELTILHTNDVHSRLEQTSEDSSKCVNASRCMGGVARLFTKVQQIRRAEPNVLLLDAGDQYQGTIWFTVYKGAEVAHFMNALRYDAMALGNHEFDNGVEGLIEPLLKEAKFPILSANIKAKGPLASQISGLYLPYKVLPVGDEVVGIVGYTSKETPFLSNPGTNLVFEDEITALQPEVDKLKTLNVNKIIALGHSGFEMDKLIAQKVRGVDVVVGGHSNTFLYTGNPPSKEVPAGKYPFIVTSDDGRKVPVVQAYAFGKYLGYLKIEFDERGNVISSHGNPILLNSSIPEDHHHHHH
Protocol: (§1) The ELISA plates were coated with SA protein diluted to 1.5 μg/mL in coating buffer (50 mM carbonate coating buffer, pH 9.6) and incubated overnight at 4° C. The supernatant was discarded, and the plates were washed three times with PBST. Then, 5% skimmed milk powder prepared with PBS was added for blocking and the plates were incubated for 2 h at 37° C. After washing the plates once with PBST, CD73-biotin protein (prepared by biotinylating CD73-His protein according to the EZ-Link NHS-Biotin Reagent instructions) was diluted to 0.5 μg/mL and added at 100 μL/well for incubation at room temperature for 1 h. The plates were washed three times with PBST, and the prepared murine-derived monoclonal antibodies against human CD73 were serially diluted with 1% BSA buffer prepared with PBST and added to the ELISA plates at 100 μl/well. The plates were incubated at 37° C. for 1 h. After washing the plates three times with PBST, HRP-labeled goat anti-mouse IgG secondary antibody was added and the plates were incubated for 30 min at 37° C. After washing the plates three times with PBST, the residual droplets were patted dry on absorbent paper as much as possible. Then, 100 μl of TMB color developing solution was added to each well, and the plates were incubated in the dark at room temperature for 5 min for color development. Subsequently, 50 μl of 2M H₂SO₄ stop solution was added to each well to terminate the substrate reaction. The OD values were read at 450 nm using a multimode microplate reader to analyze the binding ability of the tested antibodies to the target antigen human CD73-His.
(§2) Referring to the experimental method in Example 3, the affinity of 48A11-HuV33 for various mutant proteins of CD73-ND was determined. The SA protein was diluted to 1 μg/mL for coating the ELISA plates, and the biotinylated CD73 protein (CD73-biotin) was used at a concentration of 0.1 μg/mL.

[2] = target: T2, CD73-ND-L133A (human, UniProt P21589 27-317)
T2 construct: Alanine mutant of CD73-ND
T2 sequence: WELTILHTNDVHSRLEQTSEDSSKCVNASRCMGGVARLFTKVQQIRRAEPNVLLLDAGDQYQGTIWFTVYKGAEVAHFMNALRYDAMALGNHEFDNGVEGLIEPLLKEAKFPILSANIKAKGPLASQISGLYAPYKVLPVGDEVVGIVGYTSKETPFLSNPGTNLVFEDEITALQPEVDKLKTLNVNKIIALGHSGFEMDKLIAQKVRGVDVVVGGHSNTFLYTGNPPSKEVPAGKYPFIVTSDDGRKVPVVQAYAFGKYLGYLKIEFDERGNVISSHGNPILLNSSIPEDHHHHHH
Protocol: as §1, §2

[3] = target: T3, CD73-ND-P134A (human, UniProt P21589 27-317)
T3 construct: Alanine mutant of CD73-ND
T3 sequence: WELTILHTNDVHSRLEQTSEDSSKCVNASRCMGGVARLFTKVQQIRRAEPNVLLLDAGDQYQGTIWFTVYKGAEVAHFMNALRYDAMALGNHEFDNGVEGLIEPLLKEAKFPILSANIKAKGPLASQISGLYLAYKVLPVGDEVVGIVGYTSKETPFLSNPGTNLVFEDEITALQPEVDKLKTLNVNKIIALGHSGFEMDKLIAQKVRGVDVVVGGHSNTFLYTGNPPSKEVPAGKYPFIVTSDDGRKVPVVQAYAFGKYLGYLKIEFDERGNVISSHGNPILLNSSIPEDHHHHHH
Protocol: as §1, §2

[4] = target: T4, CD73-ND-K136A (human, UniProt P21589 27-317)
T4 construct: Alanine mutant of CD73-ND
T4 sequence: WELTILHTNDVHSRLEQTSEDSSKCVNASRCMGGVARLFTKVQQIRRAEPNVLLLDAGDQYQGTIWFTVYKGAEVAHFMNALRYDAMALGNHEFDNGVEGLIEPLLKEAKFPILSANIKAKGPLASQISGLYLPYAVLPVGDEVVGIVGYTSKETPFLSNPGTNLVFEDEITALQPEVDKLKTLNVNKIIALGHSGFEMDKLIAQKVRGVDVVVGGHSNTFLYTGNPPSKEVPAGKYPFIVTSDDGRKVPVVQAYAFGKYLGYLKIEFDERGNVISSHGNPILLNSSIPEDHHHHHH
Protocol: as §1, §2

[5] = target: T5, CD73-ND-V137A (human, UniProt P21589 27-317)
T5 construct: Alanine mutant of CD73-ND
T5 sequence: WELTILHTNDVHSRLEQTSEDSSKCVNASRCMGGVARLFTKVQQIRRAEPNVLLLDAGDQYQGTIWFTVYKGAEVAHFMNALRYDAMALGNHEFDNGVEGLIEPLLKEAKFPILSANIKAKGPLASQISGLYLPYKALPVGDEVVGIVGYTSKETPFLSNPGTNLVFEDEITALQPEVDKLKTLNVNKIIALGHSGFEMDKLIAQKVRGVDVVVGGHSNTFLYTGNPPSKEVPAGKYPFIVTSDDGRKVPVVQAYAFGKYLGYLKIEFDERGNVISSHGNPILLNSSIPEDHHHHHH
Protocol: as §1, §2

[6] = target: T6, CD73-ND-L138A (human, UniProt P21589 27-317)
T6 construct: Alanine mutant of CD73-ND
T6 sequence: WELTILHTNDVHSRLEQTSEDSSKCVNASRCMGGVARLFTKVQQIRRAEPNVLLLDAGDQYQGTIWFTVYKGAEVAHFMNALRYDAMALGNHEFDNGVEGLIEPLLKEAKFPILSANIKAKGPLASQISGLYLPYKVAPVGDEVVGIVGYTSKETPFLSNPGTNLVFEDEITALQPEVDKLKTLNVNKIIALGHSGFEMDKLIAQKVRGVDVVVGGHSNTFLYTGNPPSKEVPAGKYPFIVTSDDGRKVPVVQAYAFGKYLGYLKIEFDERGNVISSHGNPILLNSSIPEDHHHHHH
Protocol: as §1, §2

B1: 48A11-HuV33 (antibody, human IgG4, V domains shown)
VH: QVQLVQSGAEVKKPGASVKVSCKASGYTFTSYWMHWVRQAPGQGLEWIGEINPSIGRTNYNEKFKSRVTLTRDTSTSTAYMELSSLRSEDTAVYYCARRVYGTMDYWGQGTLVTVSS
VL: DIQMTQSPSSLSASVGDRVTITCKASQDINSYLSWFQQKPGKSPKLLIYRANIWVDGVPSRFSGSGSGQDYTFTISSLQPEDIATYYCLQYDELYTFGQGTKVEIK
notes: Humanized
In the case of B1, the “Ratio(Top)” value [1] is reported as 1 fold, the “Ratio(Top)” value [2] is reported as 2.3 fold and the “Ratio(Top)” value [3] is reported as 1.1 fold. The “Ratio(Top)” value [4] was 1 fold, the “Ratio(Top)” value [5] was 1.3 fold and the “Ratio(Top)” value [6] was 1.1 fold.
